Where no end group is shown, it is not given here. [ ]: non-standard residue; d: D form. SeMet = C[Se]CC[C@H](N)C(=O)O

The record followed here is PMC10675646 (Viruses, 2023).

The assay concerns the target T1, TRAF2 TRAF-C domain (human TRAF2 residues 315-501), tag cleaved, for crystallization (human, UniProt Q12933 315-501).
T1 sequence (looked up): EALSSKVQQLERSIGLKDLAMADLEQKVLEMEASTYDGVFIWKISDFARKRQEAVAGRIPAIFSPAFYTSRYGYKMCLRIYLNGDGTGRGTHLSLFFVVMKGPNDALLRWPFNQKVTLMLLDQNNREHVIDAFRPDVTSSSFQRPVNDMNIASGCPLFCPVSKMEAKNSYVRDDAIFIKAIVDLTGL
Kind of assay: crystal structure. Particulars: both partners purified.

Regarding RATATIP[SeMet]QASLPFGW, the binding result is on record as “binds”.
